Results as given in the DeepSol protein solubility set.

Assay: soluble on expression in E. coli; label from the status in PepcDB or PDB records

Sequence | soluble on expression in E. coli
MSLSAPLPLCVIGAGCVGMRHVEVARRSPQIRLTAVVEPVETRRRALAESGLVAVATLEEVPRETRAAIVATPTPDHLATGLAALSRGWAVLVEKPTAGTMDDARVLLGAADRAGLPLYVGHHRRCHPFSRAAREALGGIGDLVGLQGLWSLRKHDSYYAEDWRRQAGAGPLMTNLSHEIDLLRFLVGDMVEVSALTSSARRGLVVPDTAALAFRFADGALGSFLISDAGASPWSFEAACAENPAIAVSGQDYIRITGTAGALEFPSLTRWGRSAPGEIEWSKPLARAAGAGFARVDPLLEQINRFAAVLEGAQDDVLCTGTDGNAALEMTLAAALSGKLGRPVRAHEVPGDYSGEGHHHHHH | soluble
MGSDKIHHHHHHMKLYELAMTPSARRVNIFLKELGLNEQELGLERESLNLRAGDNLSDEFKAISVNGRIPVLELDDGQTLCESVAICRYFDEIITSAHSLFGDTPLEKAQVEMWQRICELQGLFVAFQAFRNITKVYEDRERCVEAWGQESRQRVIEFLPTLEKQLGQQPFVAGQNFSIADITAYVMMSFIKHLEITPSDDQPHLTAWLTKMEQRPSIIAVNG | not soluble
MGSDKIHHHHHHMGGNSLSKELYDWLGYSSETATASAFVQQRDKIRPEALKLLFHEFTRLTVSENSLQDYRLLAVDGSDLRLPSNSKDGFSSIRNSEDSKNYNLVHLDAMYDLMGKVYVDASVQSKKGMNEHKALVSMVDQSEINGNVIAIMDRGYESFNNIAHFQEKSWYYIIRAKESYGIISRLSLPDYPEYDEEIMLTLTRRQTKETLPLLKAYPHRYRWIQPHTTFDFIKPKDSKFYDLHFRAVRFAIADGVYETVYTNLNAEDFPPEKLKQLYNLRWGIETSFKELKYAVGLASLHSKKKDFILQEIFARLILYNYSSIIMHHISISEDLRVNFPVALNICRQFLRELIPAVQVLKLIGKHLSPIRPGRQFPRHQNPISAVGFQYRII | not soluble
MGHHHHHHHHHHSSGHIEGRHMANPLAGKPFYVDPASAAMVAARNANPPNAELTSVANTPQSYWLDQAFPPATVGGTVARYTGAAQAAGAMPVLTLYGIPHRDCGSYASGGFATGTDYRGWIDAVASGLGSSPATIIVEPDALAMADCLSPDQRQERFDLVRYAVDTLTRDPAAAVYVDAGHSRWLSAEAMAARLNDVGVGRARGFSLNVSNFYTTDEEIGYGEAISGLTNGSHYVIDTSRNGAGPAPDAPLNWCNPSGRALGAPPTTATAGAHADAYLWIKRPGESDGTCGRGEPQAGRFVSQYAIDLAHNAGQ | soluble
MGSSHHHHHHSSGRENLYFQGHMSCTTDKLIQKYDALVRKTTEHKFAKELCAGTLKDRSLYIYLSQDLQFFETSLRLICKTTSLAPTTHALITLAKKIGFFSNDENSYFHDCLELLAPSLTKEERDNFDNKAIPGVDAYINFLDELRKDASITWPSLVTSLWVAEELYWRWARDTPRAPGLHWKYQKWIDLHDGEHFQTWCEFLKAEVDKFPVEEVESIFVKVSQFEFEFFESCYNA | soluble
MSLGIPLSQLIVESPKPLSSGITGLDEILNLGFQARSIYEIFGPPGIGKTNFGIQLVCNSLEGIQQSEINDDKILWIETFQEMPINILRERFQKFKIVEENVKRVRITKFGQLLYFFQNLFKLSQSVRYKLVIIDGFSQLVCDHLCTLSKRGGGMIDKTIHELKCRHLILIFTVMTKYTHSTGSTIIVLNDCMNTAFQSNEFESLEEYYEILDDGSNFFVNSNNERRKNNVHILKSALVANIAMGSKDSTWEVFLRDRIGLFRDWNEQVDETVFVKSKRVKASSSQSNEGCTTIKEMRINKRNFENLRIAIVFNLHGEDRKREGRNLKRSRSSDDRNYIVKFDFDKATGQLRDIIDLKPDTANIASFPTLSTSSSSCSQVFNNIDSNDNPLPNAEGKEEIIYDSEG | not soluble
MAAFSVHILGCGSALPTTHHHPSSQVIDLRDKLYMIDCGEGVQRQFRHEKLHFGRLIHIFISHLHGDHCFGLPGFISTLGLLGRTGTLHVHGPEGIERFLSPILEQFCHRMPYQVEIHTIDASRHALVHEDKSVKVYSIPLSHRIPAVGYLFEEKCRARHLNKAAAEFYNIPLAEYPLIIEGSDYTTPDGRIIPNRHLTTPGTPPRRYAYCSDTEFCPSIVPIIQGVDLLYHEATFMEEDRARAKETFHSTAKEAAEIARQAGAKRLLIGHYSGRYKDVQGLLEEAQSVFKPTIAANERMRIDL | not soluble
SEHPQPVTTQIEKSVNTALNKNYVFNKADYQYTLTNPSLGKIVGGILYPNATGSTTVKISDKSGKIIKEVPLSVTASTEDNFTKLLDKWNDVTIGNYVYDTNDSNMQKLNQKLDETNAKNIEAIKLDSNRTFLWKDLDNLNNSAQLTATYRRLEDLAKQITNPHSTIYKNEKAIRTVKESLAWLHQNFYNVNKDIEGSANWWDFEIGVPRSITGTLSLMNNYFTDAEIKTYTDPIEHFVPDAEYFRKTLVNPFKALGGNLVDMGRVKIIEGLLRKDNTIIEKTSHSLKNLFTTATKAEGFYADGSYIDHTNVAYTGAYGNVLIDGLTQLLPIIQETDYKISNQELDMVYKWINQSFLPLIVKGELMDMSRGRSISREAASSHAAAVEVLRGFLRLANMSNEERNLDLKSTIKTIITSNKFYNVFNNLKSYSDIANMNKLLNDSTVATKPLKSNLSTFNSMDRLAYYNAKKDFGFALSLHSKRTLNYEGMNDENTRGWYTGDGMFYIYNSDQSHYSNHFWPTVNPYKMAGTTEKDAKREDTTKEFMSKHSKDAKEKTGQVTGTSDFVGSVKLNDHFALAAMDFTNWDRTLTAQKGWVILNDKIVFLGSNIKNTNGIGNVSTTIDQRKDDSKTPYTTYVNGKTIDLKQASSQQFTDTKSVFLESKEPGRNIGYIFFKNSTIDIERKEQTGTWNSINRTSKNTSIVSNPFITISQKHDNKGDSYGYMMVPNIDRTSFDKLANSKEVELLENSSKQQVIYDKNSQTWAVIKHDNQESLINNQFKMNKAGLYLVQKVGNDYQNVYYQPQTMTKTDQLAI | soluble
MGSDKIHHHHHHMTKDYVIEMRNITKIFGEFVANDHINLNVRRGEIHALLGENGAGKSTLMNMLAGLLEPTSGEIVINGQSVKIDSPSKAAQLGIGMVHQHFMLVDAFTVAENIILGSETTKGGVIDLKKAIAEIKELSAKYGLEVDPTAKVADISVGAQQRVEILKTLYRGADLLIFDEPTAVLTPAEIAELLKIMKALVEEGKSIILITHKLDEIRAVADSVTVIRRGKSIETVAVEGATNQDLAEWMVGRSVSFKTEKVEASPKEVILSIKDLVVNENRGIPAVKGLSLDVRAGEVVGIAGIDGNGQSELIQAITGLRKVKSGSITIKGEEVVGKTPRKITEMQVSHVPEDRHRDGLVLPMTVAENFALQTYYKEPISKNGILNYNIINEKARALMEEFDVRGASELVPIKALSGGNQQKAIIAREIDRNPDLFIVSQPTRGLDVGAIEYIRKRLIAERDKGKAVLVVSFELDEILDVSDRIAVIHDGVIHGIVEPAKTNKQELGVLMAGGHIEKGEEHA | not soluble
MDLSALREDFPLFAQRPELVYLDSAATSQKPRRVIEALRRYYETLNANVHRGAYRLSAEATEAYEEARRRLARFLNAEPKEIVFVRNTTEAMNLVAYAWGLRNLKEGDEVLVTEMEHHAGLVPWHLVAGLTGAKVKAIPLTEEGRLDLSALEDLLTERTRVVSLVHMSNVLGTINPVAEIARRAKEAGALVVVDGAQSAPHLPVDVKALGADFFALSGHKMLGPTGAGVLWGRYEVLEGMMPFLGGGEMILEVHVDRSTYAPPPQRFEAGTPPIAEAIALGEAACYLMEVGMEKVFAHDRALLDYALKRLEEVPRLRVYGPKGLDRGGVIPFTLGRLHAHDLATFLDQEGIAVRAGHHCAQPLHRKLGLAATARASFYLYNTKEEVDRFVEALLRIEAKYRAWL | soluble
MGSDKIHHHHHHMNTIYNTLRTDKGYKVYEGYLYEITGEECEEALDLVIPKNIVFADTDTCGYTFLLNEDGTVYDDVTFYKFDDKYWLASHKALDSYLDNINFDYTVTDISDEYKMLQIEGRYSGEIAQSFYEYDISTLNFRTLIEMTYKGEKGYLARFGFSGEFGYQFFLPSSIFATFVSDVCEGIAEYGDELDRYLRFEVGQPITDIYQQEEYSLYEIGYSWNLDFTKEEFRGRDSLLEHIRSATVKSVGFSTKEKLASGTPVLFDDQIVGKIFWIADEKDSSENYLGLMIVNQTYAHSGVTFVTEDGQILKTQSSPYCIPESWNKE | not soluble
MKNLAIFDLDNTLINTDSDHAWPQYLIKKGLVDAAETEAQNEKFYRDYQNGCLDIDAFLKFHLAPLARYSKEELAEFHREFMAEYIIPHISPMQRMLVQSHQMAGDETLVISSTNEFIITPVCHLFGITNIIGTQLETGSDGRYTGNYIGTPSLKEGKITRLNQWLAERGETLQSYGKTYFYSDSKNDLPLLRLVSEPVAVNPDAELEKEAKEKGWPVLNFK | soluble
MGSDKIHHHHHHMDMLLKKILGTFGVSGREKEISEVIKEELNKYPCEVREDKLGNIIVKLGSGREKIMLSTNMDKKGVITYHIEEDGKVRIDAIGDIKADDIIGKTVVFRSGIEGKIESEKKENNEFRDIYVNVNMGKREAVLKYISEGEAAEFGGNTFADKENVVGPYLSNRAGCYAFLKVIKEIKSIDKEVYFVFSTQGNLNGRGARAAAFEIEPDMCISVNTEKEGEVKLSEGPILVLMEKGLITNYHVKEQIISSAEKAQIKLQRCVSSESSDGSVVHKEVGGIKTGTIALPCKNKNETNETISLNDVDDLVKLLQYIVKK | not soluble
MSLKEKLVAIVGPTAVGKTKTSVMLAKRLNGEVISGDSMQVYRGMDIGTAKITAEEMDGVPHHLIDIKDPSESFSVADFQDLATPLITEIHERGRLPFLVGGTGLYVNAVIHQFNLGDIRADEDYRHELEAFVNSYGVQALHDKLSKIDPKAAAAIHPNNYRRVIRALEIIKLTGKTVTEQARHEEETPSPYNLVMIGLTMERDVLYDRINRRVDQMVEEGLIDEAKKLYDRGIRDCQSVQAIGYKEMYDYLDGNVTLEEAIDTLKRNSRRYAKRQLTWFRNKANVTWFDMTDVDFDKKIMEIHNFIAGKLEEKSKEGHHHHHH | soluble
MSLNIMDFNVKKLAADAGTFLSRAVQFTEEKLGQAEKTELDAHLENLLSKAECTKIWTEKIMKQTEVLLQPNPNARIEEFVYEKLDRKAPSRINNPELLGQYMIDAGTEFGPGTAYGNALIKCGETQKRIGTADRELIQTSALNFLTPLRNFIEGDYKTIAKERKLLQNKRLDLDAAKTRLKKAKAAETKSSSEQELRITQSEFDRQAEITRLLLEGISSTHAHHLRCLNDFVEAQMTYYAQCYQYMLDLQKQLGSFPSNYLSNNNQTSGTPVPYALSNAIGPSAQASTGSLVITCPSNLNDLKESSNNRKARVLYDYDAANSTELSLLADEVITVFSVVGMDSDWLMGERGNQKGKVPITYLELLNEGHHHHHH | soluble
MVGHKYPVKCLEVDKSKGRLVVSHRRAMAERQMEHLKTGALVEGTVQGVKPYGVFVDVFGTSGLLHISQISHDQVANIQSLFLPGEKVKCMVVSFDKQRGRISLSTKALEPHPGDMLRNKQLVYEKAEEMALSYNQRMDSPVRSKNTTSSSTDDIIAGLDIGSLDDLDPILFGTHTNSSNSNTHSDHLKQDSMNGTIPESDI | not soluble
MVFGENQDLIRTHFQKEADKVRAMKTNWGLFTRTRMIAQSDYDFIVTYQQAENEAERSTVLSVFKEKAVYAFVHLMSQISKDDYVRYTLTLIDDMLREDVTRTIIFEDVAVLLKRSPFSFFMGLLHRQDQYIVHITFSILTKMAVFGNIKLSGDELDYCMGSLKEAMNRGTNNDYIVTAVRCMQTLFRFDPYRVSFVNINGYDSLTHALYSTRKCGFQIQYQIIFCMWLLTFNGHAAEVALSGNLIQTISGILGNCQKEKVIRIVVSTLRNLITSNQDVYMKKQAALQMIQNRIPTKLDHLENRKFTDVDLVEDMVYLQTELKKVVQVLTSFDEYENELRQGSLHWSPAHKCEVFWNENAHRLNDNRQELLKLLVAMLEKSNDPLVLCVAAHDIGEFVRYYPRGKLKVEQLGGKEAMMRLLTVKDPNVRYHALLAAQKLMINNWKDLGLEI | not soluble
